The text below walks through data of US20130209454A1.

In assay [1] the target is HIV-1 Env of strain BJOX009000.02.4 (HIV-1). The assay is described as follows: cell-based or functional assay.
The target of assay [2] is HIV-1 Env of strain BJOX025000.01.1 (HIV-1). The assay can be described thus: cell-based or functional assay.
Assay [3] has as its target HIV-1 Env of strain CNE19 (HIV-1). The assay can be described thus: cell-based or functional assay.
Assay [4] addresses HIV-1 Env of strain CNE8 (HIV-1). The assay can be described thus: cell-based or functional assay.
Assay [5] has as its target HIV-1 Env of strain X1632_S2_B10 (HIV-1). The assay is described as follows: cell-based or functional assay.
Assay [6] deals with Env of HIV-1 strain 191084 B7-19 (HIV-1). The assay is described as follows: cell-based or functional assay.
In assay [7] the target is Env of HIV-1 strain 231966.c02 (HIV-1). The assay is described as follows: cell-based or functional assay.
Assay [8] has as its target Env of HIV-1 strain 3016.v5.c45 (HIV-1). The assay can be described thus: cell-based or functional assay.
The target in assay [9] is Env of HIV-1 strain 62357_14_D3_4589 (HIV-1). The assay is described as follows: cell-based or functional assay.
In assay [10] the target is Env of HIV-1 strain 6480.v4.c25 (HIV-1). The assay is described as follows: cell-based or functional assay.
The target of assay [11] is Env of HIV-1 strain 6540.v4.c1 (HIV-1). The assay is described as follows: cell-based or functional assay.
Assay [12] concerns the target Env of HIV-1 strain AC10.0.29 (HIV-1). The assay is described as follows: cell-based or functional assay.
The target in assay [13] is Env of HIV-1 strain BJOX009000.02.4 (HIV-1). The assay is described as follows: cell-based or functional assay.
The target of assay [14] is Env of HIV-1 strain BJOX015000.11.5 (HIV-1). The assay is described as follows: cell-based or functional assay.
Assay [15] concerns the target Env of HIV-1 strain C3347.c11 (HIV-1). The assay can be described thus: cell-based or functional assay.
In assay [16] the target is Env of HIV-1 strain CNE17 (HIV-1). The assay is described as follows: cell-based or functional assay.
The target of assay [17] is Env of HIV-1 strain CNE19 (HIV-1). The assay is described as follows: cell-based or functional assay.
In assay [18] the target is Env of HIV-1 strain Ce0682_E4 (HIV-1). The assay is described as follows: cell-based or functional assay.
The target in assay [19] is Env of HIV-1 strain Ce1086_B2 (HIV-1). The assay can be described thus: cell-based or functional assay.
Assay [20] deals with Env of HIV-1 strain Ce704809221_1B3 (HIV-1). The assay can be described thus: cell-based or functional assay.
In assay [21] the target is Env of HIV-1 strain HIV-16845-2.22 (HIV-1). The assay is described as follows: cell-based or functional assay.
The target in assay [22] is Env of HIV-1 strain QH0692.42 (HIV-1). The assay is described as follows: cell-based or functional assay.
Assay [23] addresses Env of HIV-1 strain R2184.c04 (HIV-1). The assay can be described thus: cell-based or functional assay.
The target in assay [24] is Env of HIV-1 strain RHPA4259.7 (HIV-1). The assay is described as follows: cell-based or functional assay.
Assay [25] deals with Env of HIV-1 strain T255-34 (HIV-1). The assay can be described thus: cell-based or functional assay.
Assay [26] has as its target Env of HIV-1 strain T278-50 (HIV-1). The assay can be described thus: cell-based or functional assay.
Assay [27] deals with Env of HIV-1 strain THRO4156.18 (HIV-1). The assay can be described thus: cell-based or functional assay.
Assay [28] deals with Env of HIV-1 strain WITO4160.33 (HIV-1). The assay is described as follows: cell-based or functional assay.
In assay [29] the target is Env of HIV-1 strain X1632_S2_B10 (HIV-1). The assay can be described thus: cell-based or functional assay.
In assay [30] the target is HIV-1 strain YU2 gp160 (gp120) (HIV-1) (UniProt P35961).
For assay [31], the target named is YU2 gp160 point mutant at 279gp120 (HIV-1) (UniProt P35961).
Assay [32] deals with YU2 gp160 point mutant at 458gp120 (HIV-1) (UniProt P35961).
Assay [33] deals with HIV-1 Env of strain Du172.17 (HIV-1). The assay can be described thus: cell-based or functional assay.
In assay [34] the target is YU2 gp160 point mutant at 458gp120 (HIV-1) (UniProt P35961). The assay is described as follows: cell-based or functional assay.

B1: NIH45-46^G54W(HC), S28Y(LC) (antibody, V domains shown)
VH: QVRLSQSGGQMKKPGESMRLSCRASGYEFLNCPINWIRLAPGRRPEWMGWLKPRWGAVNYARKFQGRVTMTRDVYSDTAFLELRSLTSDDTAVYFCTRGKYCTARDYYNWDFEHWGRGAPVTVSS
VL: EIVLTQSPATLSLSPGETAIISCRTSQYGSLAWYQQRPGQAPRLVIYSGSTRAAGIPDRFSGSRWGADYNLSISNLESGDFGVYYCQQYEFFGQGTKVQVDI
Regarding B1, the IC50, pseudovirus neutralization in assay [1] came to 0.14 µg/mL; in [2] it was 0.031 µg/mL; in [3], 0.022 µg/mL; in assay [4], 0.038 µg/mL; in [5], 0.001 µg/mL.

B2: NIH45-46^G54W (antibody, V domains shown)
VH: QVRLSQSGGQMKKPGESMRLSCRASGYEFLNCPINWIRLAPGRRPEWMGWLKPRWGAVNYARKFQGRVTMTRDVYSDTAFLELRSLTSDDTAVYFCTRGKYCTARDYYNWDFEHWGRGAPVTVSS
VL: EIVLTQSPATLSLSPGETAIISCRTSQSGSLAWYQQRPGQAPRLVIYSGSTRAAGIPDRFSGSRWGADYNLSISNLESGDFGVYYCQQYEFFGQGTKVQVDI
With B2, the 80% effect concentration (IC80) (in general, the concentration needed for an effect of 80%) in assay [6] was 0.026 µg/mL; in assay [7], 0.11 µg/mL; in assay [8], 15.4 µg/mL; in assay [9], 0.07 µg/mL; in assay [10], 0.021 µg/mL; in assay [11], greater than 50 µg/mL. Besides, the concentration for an effect of 80% (IC80) in assay [12] was determined as 0.63 µg/mL; in assay [13], 0.564 µg/mL; in assay [14], 0.239 µg/mL; in [15], 0.028 µg/mL; in assay [16] it was 0.127 µg/mL; in [17], 0.028 µg/mL. The 80% effect concentration (IC80) in assay [18] was determined as 0.039 µg/mL; in assay [19], 0.091 µg/mL; in assay [20], 0.21 µg/mL; in assay [21], 2.1 µg/mL; in assay [22], 1.12 µg/mL; in assay [23] it was 0.036 µg/mL. Also, the IC80 is 0.007 µg/mL in assay [24]; 0.099 µg/mL in [25]; greater than 50 µg/mL in assay [26]; 1.81 µg/mL in [27]; 0.04 µg/mL in assay [28]. Further, the IC50, pseudovirus neutralization in assay [1] turned out to be 0.132 µg/mL; in assay [2], 0.014 µg/mL; in assay [3] it was 0.002 µg/mL; in assay [4], 0.055 µg/mL.

B3: NIH45-46^G54W(HC) S28Y(LC) (antibody, V domains shown)
VH: QVRLSQSGGQMKKPGESMRLSCRASGYEFLNCPINWIRLAPGRRPEWMGWLKPRWGAVNYARKFQGRVTMTRDVYSDTAFLELRSLTSDDTAVYFCTRGKYCTARDYYNWDFEHWGRGAPVTVSS
VL: EIVLTQSPATLSLSPGETAIISCRTSQYGSLAWYQQRPGQAPRLVIYSGSTRAAGIPDRFSGSRWGADYNLSISNLESGDFGVYYCQQYEFFGQGTKVQVDI
Regarding B3, the 80% effect concentration (IC80) was 0.016 µg/mL in assay [6]; 0.076 µg/mL in [7]; 0.037 µg/mL in [8]; 0.084 µg/mL in assay [9]; 0.058 µg/mL in assay [10]; greater than 50 µg/mL in assay [11]. For the same molecule, the IC80 turned out to be 0.554 µg/mL in [12]; 0.621 µg/mL in [13]; 0.308 µg/mL in [14]; 0.034 µg/mL in assay [15]; 0.254 µg/mL in assay [16]; 0.102 µg/mL in assay [17]. Also, the IC80 in assay [18] is 0.031 µg/mL; in assay [19] it was 0.042 µg/mL; in assay [20], 0.484 µg/mL; in [21] it was 1.44 µg/mL; in assay [22], 0.622 µg/mL; in assay [23] it was 0.039 µg/mL. Also, the 80% effect concentration (IC80) is 0.007 µg/mL in assay [24]; 0.105 µg/mL in [25]; greater than 50 µg/mL in [26]; 2.74 µg/mL in assay [27]; 0.073 µg/mL in assay [28]; 0.007 µg/mL in assay [29].

B4: NIH45-46^G54W IgG (antibody, name in Kabat numbering, V domains shown)
VH: QVRLSQSGGQMKKPGESMRLSCRASGYEFLNCPINWIRLAPGRRPEWMGWLKPRWGAVNYARKFQGRVTMTRDVYSDTAFLELRSLTSDDTAVYFCTRGKYCTARDYYNWDFEHWGRGAPVTVSS
VL: EIVLTQSPATLSLSPGETAIISCRTSQSGSLAWYQQRPGQAPRLVIYSGSTRAAGIPDRFSGSRWGADYNLSISNLESGDFGVYYCQQYEFFGQGTKVQVDI
Consider B4, for which the IC50, pseudovirus neutralization (TZM-bl, luciferase) with G459D (HIV-1) was 0.01 µg/mL; in assay [30], 0.008 µg/mL; in the assay with N280D (HIV-1), greater than 50 µg/mL; with N280Y (HIV-1), greater than 50 µg/mL; with R456W (HIV-1), 6 µg/mL; in assay [31], greater than 50 µg/mL. The same molecule displayed an IC50, pseudovirus neutralization (TZM-bl, luciferase) in assay [32] of 18 µg/mL. Further, in assay [33], the neutralization IC50 was found to be 0.9 µg/mL. Besides, in assay [34], the decrease of neutralization potency against YU2 is greater than 1500 fold.

B5: NIH45-46^G54F IgG (antibody, name in Kabat numbering, V domains shown)
VH: QVRLSQSGGQMKKPGESMRLSCRASGYEFLNCPINWIRLAPGRRPEWMGWLKPRFGAVNYARKFQGRVTMTRDVYSDTAFLELRSLTSDDTAVYFCTRGKYCTARDYYNWDFEHWGRGAPVTVSS
VL: EIVLTQSPATLSLSPGETAIISCRTSQSGSLAWYQQRPGQAPRLVIYSGSTRAAGIPDRFSGSRWGADYNLSISNLESGDFGVYYCQQYEFFGQGTKVQVDI
The molecule B5 came in with a neutralization IC50 in assay [33] of 16 µg/mL.
